# Paper PMC5356278, “Identification of residues important for the activity of aldehyde-deformylating oxygenase through investigation into the structure-activity relationship” (BMC Biotechnology, 2017)
# Experiments:
# purified protein [1] = substrate: CCCCCCC=O; test: purified protein; assay type: biochemical, Synechocystis sp. PCC 6803; details: NADH 750 uM, PMS 75 uM, catalase 1 mg/ml, ferrous ammonium sulfate 80 uM, 100 mM HEPES pH 7.2, 100 mM KCl
# purified protein [2] = substrate: CCCCCCC=O; test: purified protein; assay type: biochemical, Synechococcus elongatus; details: NADH 750 uM, PMS 75 uM, catalase 1 mg/ml, ferrous ammonium sulfate 80 uM, 100 mM HEPES pH 7.2, 100 mM KCl
Protein,Km (purified protein [1]) [µM],kcat (purified protein [1]) [s⁻¹],kcat/Km (purified protein [1]) [M⁻¹ s⁻¹],Km (purified protein [2]) [µM],kcat (purified protein [2]) [s⁻¹],kcat/Km (purified protein [2]) [M⁻¹ s⁻¹]
"cADO-sll0208 (sll0208) (Synechocystis sp. PCC 6803 substr. Kazusa; L148R) (protein, full gene in pET-28a(+) (NdeI/XhoI), E. coli BL21(DE3), nickel column; apo enzyme reconstituted with stoichiometric ferrous iron (diferrous form)) MPELAVRTEFDYSSEIYKDAYSRINAIVIEGEQEAYSNYLQMAELLPEDKEELTRLAKMENRHKKGFQACGNNLQVNPDMPYAQEFFAGLHGNFQHAFSEGKVVTCLLIQALIIEAFAIAAYNIYIPVADDFARKITEGVVKDEYTHRNYGEEWLKANFATAKEELEQANKENLPLVWKMLNQVQGDAKVLGMEKEALVEDFMISYGEALSNIGFSTREIMRMSSYGLAGV",320 ± 80,0.0152 ± 0.00133,47.3 ± 5,–,–,–
"cADO-sll0208 (sll0208) (Synechocystis sp. PCC 6803 substr. Kazusa; D49H/N123H) (protein, full gene in pET-28a(+) (NdeI/XhoI), E. coli BL21(DE3), nickel column; apo enzyme reconstituted with stoichiometric ferrous iron (diferrous form)) MPELAVRTEFDYSSEIYKDAYSRINAIVIEGEQEAYSNYLQMAELLPEHKEELTRLAKMENRHKKGFQACGNNLQVNPDMPYAQEFFAGLHGNFQHAFSEGKVVTCLLIQALIIEAFAIAAYHIYIPVADDFARKITEGVVKDEYTHLNYGEEWLKANFATAKEELEQANKENLPLVWKMLNQVQGDAKVLGMEKEALVEDFMISYGEALSNIGFSTREIMRMSSYGLAGV",380 ± 80,0.0138 ± 0.00133,36.3 ± 3.33,–,–,–
"cADO-1593 (1593) (Synechococcus elongatus PCC 7942 = FACHB-805; L146T) (protein, codon-optimised synthetic gene, E. coli BL21(DE3), nickel column; apo enzyme reconstituted with stoichiometric ferrous iron (diferrous form)) MPQLEASLELDFQSESYKDAYSRINAIVIEGEQEAFDNYNRLAEMLPDQRDELHKLAKMEQRHMKGFMACGKNLSVTPDMGFAQKFFERLHENFKAAAAEGKVVTCLLIQSLIIECFAIAAYNIYIPVADAFARKITEGVVRDEYTHRNFGEEWLKANFDASKAELEEANRQNLPLVWLMLNEVADDARELGMERESLVEDFMIAYGEALENIGFTTREIMRMSAYGLAAV",–,–,–,340 ± 80,0.0157 ± 0.00133,46 ± 5
"cADO-1593 (1593) (Synechococcus elongatus PCC 7942 = FACHB-805; F150Y) (protein, codon-optimised synthetic gene, E. coli BL21(DE3), nickel column; apo enzyme reconstituted with stoichiometric ferrous iron (diferrous form)) MPQLEASLELDFQSESYKDAYSRINAIVIEGEQEAFDNYNRLAEMLPDQRDELHKLAKMEQRHMKGFMACGKNLSVTPDMGFAQKFFERLHENFKAAAAEGKVVTCLLIQSLIIECFAIAAYNIYIPVADAFARKITEGVVRDEYLHRNYGEEWLKANFDASKAELEEANRQNLPLVWLMLNEVADDARELGMERESLVEDFMIAYGEALENIGFTTREIMRMSAYGLAAV",–,–,–,200 ± 40,0.0125 ± 0.000667,62.5 ± 6.67
"cADO-1593 (1593) (Synechococcus elongatus PCC 7942 = FACHB-805; F150Y/Q49H) (protein, codon-optimised synthetic gene, E. coli BL21(DE3), nickel column; apo enzyme reconstituted with stoichiometric ferrous iron (diferrous form)) MPQLEASLELDFQSESYKDAYSRINAIVIEGEQEAFDNYNRLAEMLPDHRDELHKLAKMEQRHMKGFMACGKNLSVTPDMGFAQKFFERLHENFKAAAAEGKVVTCLLIQSLIIECFAIAAYNIYIPVADAFARKITEGVVRDEYLHRNYGEEWLKANFDASKAELEEANRQNLPLVWLMLNEVADDARELGMERESLVEDFMIAYGEALENIGFTTREIMRMSAYGLAAV",–,–,–,330 ± 50,0.0145 ± 0.000667,44 ± 3.33
"cADO-1593 (1593) (Synechococcus elongatus PCC 7942 = FACHB-805; F150Y/N123H/Q49H) (protein, codon-optimised synthetic gene, E. coli BL21(DE3), nickel column; apo enzyme reconstituted with stoichiometric ferrous iron (diferrous form)) MPQLEASLELDFQSESYKDAYSRINAIVIEGEQEAFDNYNRLAEMLPDHRDELHKLAKMEQRHMKGFMACGKNLSVTPDMGFAQKFFERLHENFKAAAAEGKVVTCLLIQSLIIECFAIAAYHIYIPVADAFARKITEGVVRDEYLHRNYGEEWLKANFDASKAELEEANRQNLPLVWLMLNEVADDARELGMERESLVEDFMIAYGEALENIGFTTREIMRMSAYGLAAV",–,–,–,350 ± 20,0.0173 ± 0.000333,49.5 ± 5
"cADO-1593 (1593) (Synechococcus elongatus PCC 7942 = FACHB-805; W178R) (protein, codon-optimised synthetic gene, E. coli BL21(DE3), nickel column; apo enzyme reconstituted with stoichiometric ferrous iron (diferrous form)) MPQLEASLELDFQSESYKDAYSRINAIVIEGEQEAFDNYNRLAEMLPDQRDELHKLAKMEQRHMKGFMACGKNLSVTPDMGFAQKFFERLHENFKAAAAEGKVVTCLLIQSLIIECFAIAAYNIYIPVADAFARKITEGVVRDEYLHRNFGEEWLKANFDASKAELEEANRQNLPLVRLMLNEVADDARELGMERESLVEDFMIAYGEALENIGFTTREIMRMSAYGLAAV",–,–,–,340 ± 80,0.0302 ± 0.0025,88.7 ± 6.67
"cADO-sll0208 (sll0208) (Synechocystis sp. PCC 6803 substr. Kazusa) (protein, full gene in pET-28a(+) (NdeI/XhoI), E. coli BL21(DE3), nickel column; apo enzyme reconstituted with stoichiometric ferrous iron (diferrous form)) MPELAVRTEFDYSSEIYKDAYSRINAIVIEGEQEAYSNYLQMAELLPEDKEELTRLAKMENRHKKGFQACGNNLQVNPDMPYAQEFFAGLHGNFQHAFSEGKVVTCLLIQALIIEAFAIAAYNIYIPVADDFARKITEGVVKDEYTHLNYGEEWLKANFATAKEELEQANKENLPLVWKMLNQVQGDAKVLGMEKEALVEDFMISYGEALSNIGFSTREIMRMSSYGLAGV",350 ± 70,0.00983 ± 0.000667,28.2 ± 3.33,–,–,–
